Assay results taken from the DeepSol protein solubility set.

Assay: soluble on expression in E. coli; label from the status in PepcDB or PDB records

Sequence	soluble on expression in E. coli
SNAEQVRQAGIDDIGGILELIHPLEEQGILVRRSREQLEQEIGKFTIIEKDGLIIGCAALYPYSEERKAEMACVAIHPDYRDGNRGLLLLNYMKHRSKSENINQIFVLTTHSLHWFREQGFYEVGVDYLPGAKQGLYNFQRKSKILALDL	soluble
MAYNSNSNNNNNNIVVVFDFDKTIIDVDSDNWVIDELGFTDLFNQLLPTMPWNTLMDRMMKELHDQGKTIEEIKQVLRTIPIHPRVVPAIKSAHDLGCELRIVSDANMFFIETIVEHLGISELFSEINSNPGYVDERGTLKISPYHDFTKSPHSCSCGTCPPNMCKGLIIERIQQSLAKEGKKKMIYLGDGAGDYCPSLKLNTEDYVMPRKNFPVWDLISQNPMLIKAAIREWTDGQSMEMILIGTIEEIRLEEEKEKMLTSAENNCKMQTISIGINNVHHEPILPRALRVSQSS	soluble
SLADYYQVQLNMMPPVNLTVLDHCVENYSWNQMMEQAKLYADMFGFHKYWSVDEDDISTGFTALRSIVMSSSNGQIKMPINEPVKSIMKGQIEEFNDFNGGPGIQHIAFRTNNIIETVMALMQRGVEFNHTSENYYNNLKQRLNNDGIKLYEDFDTLRSLNILIDYDPSEG	not soluble
MRESPYRILEEALRPHLGARAQVVLEEGLKRLGKRPEELSEKDAETLLKGLIFRELQARLPAAQARRAVEEALARLAPAPEGGLEALERGLARFGLYVDWPEVGRLRALVNRLRREPDPRLLQEGLALLDHLEEKLEEALLRQAQDLAHLEEALERVRPLGGPKVRRLESLIQIVREAHREGTLAQGEVERARGPGPEAPQVPGLQSRPARHPPRDGL	soluble
DVTPRRDAEYPPPEFLEAMKPLREICIKKTGVTEEAIIEFSDGKVHEDENLKCYMNCLFHEAKVVDDTGHVHLEKLHDALPDSMHDIALHMGKRCLYPEGENLCEKAFWLHKCWKESDPKHYFLI	soluble
MNLSFKINSMYICVHNMDRAINFYENLFNCKVTGKDEIYSVFDINGFRYGLFANKKTGEKKIWGNNCLPSFQVNDIDLILEKLKELNCPIVFPLTNIGKNKVLEFTDCEGNAIEITSPIKLEHHHHHH	not soluble
MRIILLGAPGAGKGTQAQFIMEKYGIPQISTGDMLRAAVKAGSELGLKAKEIMDAGKLVTDELVIALVKERITQEDCRDGFLLDGFPRTIPQADAMKEAGIKVDYVLEFDVPDELIVERIVGRRVHAASGRVYHVKFNPPKVEDKDDVTGEELTIRKDDQEATVRKRLIEYHQQTAPLVSYYHKEADAGNTQYFKLDGTRNVAEVSAELATILG	not soluble
MWKRLCAGLSCRKFINQVTMTSVNKNRKSRDENEMAKYNEKELADTSKFLSFVLRHKPEAIGIVLDREGWADIDKLILCAQKAGKRLTRALLDTVVATSDKKRFSYSSDGRCIRAVQGHSTSQVAISFAEKTPPQFLYHGTASRFLDEIKKQGLIAGERHYVHLSADEATARKVGARHGSPVILTVKAQEMAKRGLPFWQAENGVWLTSTVAVEFLEWLEHHHHHH	not soluble
MGHHHHHHSHMKPHFRNTVERMYRDTFSYNFYNRPILSRRNTVWLCYEVKTKGPSRPRLDAKIFRGQVPRSFIRAPFQVLSSPFGQCAPPHGTAQVQWPPQLTAGREQGRP	not soluble
MDPDKKKMFEVIIKKIQQQSSALEEAMKAQKPKVDCSMSREMCSPSGLIIIMERIYEKEFLADMARLNVLPVDVLTRVSAQDSIATEEAKGRLLNESRDVLSEWLDHNHGKDARDHSVFDDLAKRRIFYLAGPFLQSQWHLECSVISSSAVPAARNIVWNDHLRIRRDAAVAAAAAVNNTAGLADMDQGTRIELPKSKHQWSHQDASRHIKFVKSSVGKFFKKKIIQKFSTGGSQNLFFFYTSVCVQDIALNCTSPFWEINNEYNPVIKFSKIRFPADISVINGFRMPFLKM	not soluble
MTGMTNVTKLASEPSGQEFLVFTLGDEEYGIDILKVQEIRGYDQVTRIANTPAFIKGVTNLRGVIVPIVDLRIKFSQVDVDYNDNTVVIVLNLGQRVVGIVVDGVSDVLSLTAEQIRPAPEFAVTLSTEYLTGLGALGDRMLILVNIEKLLNSEEMALLDSAASEVA	soluble
MEITRLLTLYYEATPDPQNPLEGVRFGTSGHRGSSLKATFTEAHVLAIAQAIAELRPSFGATGPLFLAKDTHALSEPAWATALSVFAAHGIEVRVEADGDYTPTPLVSLAILEHNAHHEAKADGVLLTPSHNPPEDGGFKYNPPTGGPANARITRAIEERANALLQEGLKGVKRLPLREALARAKPFDYAGLYVEKVAEAVDLEAIRASGLRIGVDPLGGASLRVWERLAESHGLPLEVVNPTLDPTFRFMPKDHDGKIRMDCSSPYAMAGLLALKDRFDLAIGNDPDADRHGIVTPRGLMNPNHYLAAALHHLYTTRSWPGAKVGKTAVTSALLDRVAQALGREVYETPVGFKHFVAGLLEGWLGFAGEESAGASFLRFDGRPFSTDKDGILMGLLAAELMAKRGQAPDALYEALAEKLGRPYYARKDLPVSPEAKARLARLSAKEVHPSTLAGEPVLQVLDRATGNGEPLGGIKVVAANAWFAVRPSGTEDVAKVYAESFLGEAHLERVLEEATALLHKALA	soluble
MSVNVRPVKRFVEEQKKKNPEIKLSEKATQLLTDMPKMDSPEKLFNLEDKIATEMGSDRIFEEFLQDYAFLRNAVEEYLDGKPTSSDTISKIARLRRNTRLTHYGTALMRKEVAERMENVDAKLLQLQNVTSEVQHIQKEIDRCLDFSAGDEELELVPFEQFHTEASEILANETADNEHEQYLARLKFENEQRRELLSTLNELEGRRNVLQSDIRGKEVRLQGLKPKLEDLTKVAEPVFEMVGAKFKDLSIEGEQRKLSLQLPAPLAVAHIHAAAYKEIHDGEYSKILRNFLYKYKLFEFRILGTNDTEKQSKDETEAMKRKRKEDETTQEKINKMASELLEVHPMSLEFEIECSENIKISMQIQYLTELKVTTAKWHINTDSKLKKSPFFSIDSLMSDLFENDTGDKCPNDVGEMKIEHLKMNFNSSAKQIGKPFKFIQEISGSEGETDRIGATEHLRKVITTIRTRISNRAVLDGIIRDLESKKTDDLNLEPEVKINSFKICDDESFIASIPTSLTKKISNSAATDRFSYKIEASDGNGRKLTAYISIPADYPRHTALFGIAAPEDSESSTEVARQIEDRLNTEAHYVDDVKSIKEQLSLLLKHIDLS	not soluble
MAANIQQQFGEQLLRAAQVVEEQIDQEMNKLENLEEDDLEVIRRQRMEQMKKAQKDRIEMLSHGHGKYEEVADEKEFFEATKKSDKVVCLFYLPGNFRCKIVDKHFEILARKHVGTRFIHVNAEKVHFLTTRLNIRVIPSIAIVVKQQTVDYIRGFDELGGKDEFTTETMENRLARSEVLTVEKKHTAPAKKKIIRSGVEEYDNEEDW	not soluble
GMVKDKNDVGPKTVAILGAGGKMGARITRKIHDSAHHLAAIEIAPEGRDRLQGMGIPLTDGDGWIDEADVVVLALPDNIIEKVAEDIVPRVRPGTIVLILDAAAPYAGVMPERADITYFIGHPCHPPLFNDETDPAARTDYHGGIAKQAIVCALMQGPEEHYAIGADICETMWSPVTRTHRVTTEQLAILEPGLSEMVAMPFVETMVHAVDECADRYGIDRQAALDFMIGHLNVEIAMWFGYSPKVPSDAALRLMEFAKDIVVKEDWREALNPAKVKQAAELIAGK	soluble
MSLGIVIYGTRVIYPAEKKEVVVQLVNQGEQASLVQSWIDDGNTSLPPEKIQVPFMLTPPVARVAAESGQQIKIKKMPNSLPDNKESLFYLNVLDIPPNSQENAGKNVLKFAMQNRIKLIWRPSRIAAVTKDSFQRIGLFRSNKAVIMKNDTANWITVTDVKAGNTKINDQTIMLPPLSTQNINMKYASTSQYEVTIIDDNGNYISSKMNVKEGHHHHHH	soluble
GMVTTRKPLRAAIIGLGRLGERHARHLVNKIQGVKLVAACALDSNQLEWAKNELGVETTYTNYKDMIDTENIDAIFIVAPTPFHPEMTIYAMNAGLNVFCEKPLGLDFNEVDEMAKVIKSHPNQIFQSGFMRRYDDSYRYAKKIVDNGDIGKIIYMRGYGIDPISGMESFTKFATEADSGGIFVDMNIHDIDLIRWFTGQDPVQAYGLTSNIAAPQLADIGEFETGVAQLKMSDGVIATLIGGRHAAHGNQVELEVMGSNGWVRIGEHPDLNRVTVFNDQGVVRPSLQSFGERFDTAFTDEVQDFVNNVIVGKQPEVTVDDGIKALKIAKACQQSANIGKLVDIQL	soluble
MILLKSEHGGKRKEMRQDDLMGPNHFSLRIMYKIIIYTYPVSLYAVKELNLSKTFSISALGILNSNSNRSPAKKQTFFSACVAKSYSSFFISICILDLASHL	soluble
